Experimental data published in the supplement of paper PMC12764529.
± gives the half width of the 95% confidence interval.

Key:
[1] = folding stability dG unfold (combined trypsin and chymotrypsin); higher = more stable
Procedure, shortened: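 Digests were run with trypsin and chymotrypsin at 11 concentrations in threefold dilutions, plus a no-protease condition, on designed mini-proteins in a PA-tagged cDNA display construct. The mini-proteins were under 80 residues, had no cysteine, and were kept only when AlphaFold2 dimer inter-PAE was above 15. After sequencing, Bayesian fitting of the counts gave K50, from which unfolding free energy was derived against a sequence-predicted unfolded-state K50 and a shared folded-state K50, per protease or combined.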

[2] = folding stability dG unfold from trypsin proteolysis; higher = more stable
Experimental: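 Folding stability of de novo designed mini-proteins (<80 aa, no Cys; designed by TrROS, TrMRF, ProteinMPNN and the joint model) was measured by cDNA display proteolysis with trypsin and chymotrypsin. Each protease was used at 11 concentrations in a threefold dilution series plus a no-protease condition. K50 was inferred by Bayesian fitting of sequencing counts, and dG unfold was derived against a sequence-predicted unfolded-state K50 (Tsuboyama et al. method). Sequences shown include variable-length N-terminal GS-type padding (SAGGSAGG...) inside a display construct carrying a PA tag. Rows were kept only if the AF2 dimer inter-PAE was >15, to exclude likely homo-oligomers.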

Sequence	folding stability dG unfold [1] [kcal/mol]	folding stability dG unfold [2] [kcal/mol]
SAGGSAGGMSPDVEVVTVERVITTTEPVSPSLSPEYLKAYPNATKTTTTVTVTVVPKERFEELTSAGGSAGG [r6_831_JUSTAS]	< -1	-1.44 ± 0.43
SAGGSAGGMSTISVTVPPNVSVEEVKERLKKENPNSKYEILSVSKGPGTVKAKIAYDPLPEELLSAGGSAGG [r6_623_JUSTAS]	< -1	-0.782 ± 0.22
SAGGSAGGMTVPASSYEGVPLKVTVSRGDENVSAEEAEVTPLPDGTVVVKLPESLPEDTEVTLESAGGSAGG [r6_630_JUSTAS]	-0.137 ± 0.13	0.703 ± 0.047
SAGGSAGGSAGAAPDETTVTTTVTPSPGTTTVTTTTYTYAPPTNTVTSTTTTTTIPAGTASAGGSAGGSAGG [r11_237_JUSTAS]	0.127 ± 0.36	0.659 ± 0.057
SAGGSAGGSAGFLVLVTDVKENPETGTFSIYLPSTGSVKTFPPNTKAVIPAAPDEPVFVAPESAGGSAGGSA [r18_329_TrMRF]	< -1	-0.314 ± 0.11
SAGGSAGGSAGGDIEINVNANSPEEAKKFLGEFAQEGPAEIKIEVTPPPPPMPPNDPEYKSAGGSAGGSAGG [r7_261_TrROS]	< -1	-0.235 ± 0.096
SAGGSAGGSAGGDPLERKPVKVLVLHPDKPIELEVDVGLSPEEIARPFAEKGYEVRFEGSAGGSAGGSAGGS [r10_540_TrMRF]	-0.836 ± 0.39	-1.17 ± 0.29
SAGGSAGGSAGGDSSAPKPVIVEEGSVILEVKRDPKHGVITILSRNPLGGELITYEIPRSAGGSAGGSAGGS [r10_427_JUSTAS]	< -1	-0.563 ± 0.28
SAGGSAGGSAGGEESRRVTVTETVYPVYPGVGIIRVTRTVTTPDATTTSTTLVFVPPGLPSAGGSAGGSAGG [r17_465_JUSTAS]	< -1	-0.433 ± 0.24
SAGGSAGGSAGGEILIFDDNGKRIIVIPIPPENRYRVVVIHENTGIPEVKEAKLEEVLSSAGGSAGGSAGGS [r10_482_TrMRF]	0.104 ± 0.28	0.92 ± 0.055
SAGGSAGGSAGGEPVSFLVKTPEDRWYPAVAIPETGEVLVEVPNEVRVLPADAEFEVSPASAGGSAGGSAGG [r7_434_TrMRF]	< -1	-0.0127 ± 0.11
SAGGSAGGSAGGETVVEEDPAAGTTVVTYHEPLPTPSTRENVTTLTHDPSSSAATTTESSAGGSAGGSAGGS [r10_1041_JUSTAS]	< -1	-1.14 ± 0.27
SAGGSAGGSAGGGENVTTEEKVLEVSYDPSKNSYSTLVKVTVKYPNGTTEEFEVVEEKLSAGGSAGGSAGGS [r10_1214_JUSTAS]	-0.0354 ± 0.21	0.334 ± 0.042
SAGGSAGGSAGGGKDVPVIAVPAGDEEAAEEFARRLVAELERRTGKPAGDIPVDFVEVESAGGSAGGSAGGS [r10_1216_TrMRF]	-0.886 ± 0.84	-0.243 ± 0.2
SAGGSAGGSAGGGMKVVIPKEEAEKKGLTEAKLKEIEEKLKAKGIKVEIKLISSEEPELLSAGGSAGGSAGG [r7_972_JUSTAS]	< -1	0.136 ± 0.12
SAGGSAGGSAGGGMTVVPTLEFFPGTRLVVRPVVVRDAEGRVVEVEPEVTPLPPPTLSLLSAGGSAGGSAGG [r7_135_JUSTAS]	< -1	-0.353 ± 0.17
SAGGSAGGSAGGGSSLVDPEGKPLPPRPEVVTTTGSYYSSLPGDGYYHLEEPVVEPVYPESAGGSAGGSAGG [r7_572_JUSTAS]	-0.198 ± 0.14	0.339 ± 0.051
SAGGSAGGSAGGKKTIWIPVKIEPVPDGVRIKFPDGNPIIIPPNHKVEHTPGWMRITLDSAGGSAGGSAGGS [r10_305_TrROS]	-0.908 ± 0.86	-0.293 ± 0.18
SAGGSAGGSAGGKPKITITQEQHPNGMHRVNVRNPNGKPIGEVPFDSPQQLEEAKEFLLDSAGGSAGGSAGG [r7_476_TrROS]	< -1	-0.608 ± 0.3

Sequence	folding stability dG unfold [1] [kcal/mol]	folding stability dG unfold [2] [kcal/mol]
SAGGSAGGSAGGKVLVRFPTGEVPEVVEIDVPFEAGDPEKAKEIADELLAKGAEEVVLEDSAGGSAGGSAGG [r11_196_TrMRF]	-0.328 ± 0.35	0.117 ± 0.056
SAGGSAGGSAGGMEKKLTLVTTRTPEGGSETILVDDSDPEKVRAELEEAGWTITETTSSSAGGSAGGSAGGS [r10_882_JUSTAS]	< -1	-0.793 ± 0.95
SAGGSAGGSAGGMENGKIEIYKKEKDTFIAKINNGDKVIIIEKIKSIEELKEALIELGYGSAGGSAGGSAGG [r7_91_TrMRF]	0.136 ± 0.17	0.527 ± 0.029
SAGGSAGGSAGGMIEIEVEKEEEVKELAEKFGFKVEAEKIEDGKIIAKIEFIPEEELKKSAGGSAGGSAGGS [r10_218_TrMRF]	< -1	-0.839 ± 0.24
SAGGSAGGSAGGMKPGEPVEIKIPVPGNGKKIPIEIPVGMPPEQARKFAKEIAEELEKNHSAGGSAGGSAGG [r7_957_TrROS]	< -1	-0.916 ± 0.2
SAGGSAGGSAGGMPVEVTEVASVTTLPNGTTKITIKTPTGTVTFDDPSKIPSSILKLLSSAGGSAGGSAGGS [r10_748_JUSTAS]	0.211 ± 0.1	0.703 ± 0.014
SAGGSAGGSAGGMPVVVINTPSEEEAEKEKAKLEEDPEYKDGPINFIYIPPGTLPENVPLSAGGSAGGSAGG [r7_976_JUSTAS]	< -1	0.286 ± 0.072
SAGGSAGGSAGGMTETLDFNGEKVVVTELPPTNTYQVTTTTPGTGVPTTTAARKEEVLTSAGGSAGGSAGGS [r10_482_JUSTAS]	-0.177 ± 0.28	0.443 ± 0.045
SAGGSAGGSAGGMTITLEFTTEEEVEAYAKEIGATKVEVTREKTETPEERIKATIEKPGSAGGSAGGSAGGS [r10_494_JUSTAS]	< -1	-0.365 ± 0.74
SAGGSAGGSAGGMVVTVKVGDETIEIDTETGTATVTPPATGTTTTVPASEVEPITPELLSAGGSAGGSAGGS [r10_709_JUSTAS]	0.123 ± 0.065	0.945 ± 0.076
SAGGSAGGSAGGMYVIKITMGDRPRSIMVPPDNPEEIKNQLRDLGYNIKEISVERFPPGSAGGSAGGSAGGS [r10_405_TrROS]	-0.787 ± 0.56	-0.749 ± 0.61
SAGGSAGGSAGGPKTVTISGGPLEDLLEKLDNMPPDDTITIHHPGGYYTVKVENDKIKIVSAGGSAGGSAGG [r7_560_TrROS]	-0.69 ± 0.22	-0.416 ± 0.13
SAGGSAGGSAGGPPEITVEHHPPNGYMTLTIPDGRPIEIPMPPNRPPSDVKNRAKDLIKSAGGSAGGSAGGS [r10_33_TrROS]	< -1	-0.457 ± 0.39
SAGGSAGGSAGGRMYPITFPGKTIEDIEEEIEELPPNYQINIDHDENGHMKVWIMPPDDFSAGGSAGGSAGG [r7_662_TrROS]	< -1	-0.422 ± 0.33
SAGGSAGGSAGGRTIHINGATPERIIKWLKEWPPDEPVEIHYHGPNNKHREIPIDELKKSAGGSAGGSAGGS [r10_732_TrROS]	-0.669 ± 0.38	-0.0271 ± 0.1
SAGGSAGGSAGGSALDPSAKVTVDRGDGKLVAVHVYPPGGKPVVILLPEEDAKKILEEVSAGGSAGGSAGGS [r4_16_TrMRF]	-0.726 ± 0.44	0.416 ± 0.031
SAGGSAGGSAGGSALDRPVPVLVTGSIPLDGKFEDALGAAKAIEEEFAPYGYIVLSDVHVSAGGSAGGSAGG [r17_197_TrMRF]	-0.0552 ± 0.12	0.297 ± 0.048
SAGGSAGGSAGGSATVINIPASSLSEEEIEALAKALEEEDPSIKGPKIEKGDGTYTIVQSAGGSAGGSAGGS [r4_330_JUSTAS]	-0.533 ± 0.23	0.553 ± 0.046
